# According to patent US20210300992A1 (Stanford University, published 2021):
# B1: PAID (receptor)
# yeast-displayed receptor fragment: QKKGAPHDLKCVTNNLQVWNCSWKAPSGTGRGTDYEVCIENRSRSCYQLEKTSIKIPALSHGDYEITINSLHDFGSSTSKFTLNEQNVSLIPDTPEILNLSADFSTSTLYLKWNDRGSVFPHRSNVIWEIKVLRKESMELVKLVTHNTTLNGKDTLHHWSWASDMPLECAIHFVEIRCYIDNLHFSGLEEWSDWSPVKNISWIPDSQTKVFPQDKVIPVGSDITFCCVSQEKVLSALIGHTNCPLIHLDGENVAIKIRNISASASSGTNVVFITEDDIFGTVIFAGYPPDTPQQLNCETHDLKEIICSWNPGRVTALVGPRATSYTLVESFSGKYVRLKRAEAPTNESYQLLFQMLPNQEIYNFTLNAHNPLGRSQSTILVNITEKVYPHTPTSFKVKDINSTAVKLSWHLPGNFAKINFLCEIEIKKSNSVQEQRNVTIKGVENSSYLVALDKLNPYTLYTFRIRCSTETFWKWSKWSNKKQHLTTEAS
# notes: 4 mutations, all marked
# B2: PSVID (receptor)
# yeast-displayed receptor fragment: QKKGAPHDLKCVTNNLQVWNCSWKAPSGTGRGTDYEVCIENRSRSCYQLEKTSIKIPALSHGDYEITINSLHDFGSSTSKFTLNEQNVSLIPDTPEILNLSADFSTSTLYLKWNDRGSVFPHRSNVIWEIKVLRKESMELVKLVTHNTTLNGKDTLHHWSWASDMPLECAIHFVEIRCYIDNLHFSGLEEWSDWSPVKNISWIPDSQTKVFPQDKVIPVGSDITFCCVSQEKVLSALIGHTSCPLIHLDGENVAIKIRNVSVSASSGTNVVFITEDDIFGTVIFAGYPPDTPQQLNCETHDLKEIICSWNPGRVTALVGPRATSYTLVESFSGKYVRLKRAEAPTNESYQLLFQMLPNQEIYNFTLNAHNPLGRSQSTILVNITEKVYPHTPTSFKVKDINSTAVKLSWHLPGNFAKINFLCEIEIKKSNSVQEQRNVTIKGVENSSYLVALDKLNPYTLYTFRIRCSTETFWKWSKWSNKKQHLTTEAS
# notes: 5 mutations, all marked
# B3: VPDAID (receptor)
# yeast-displayed receptor fragment: QKKGAPHDLKCVTNNLQVWNCSWKAPSGTGRGTDYEVCIENRSRSCYQLEKTSIKIPALSHGDYEITINSLHDFGSSTSKFTLNEQNVSLIPDTPEILNLSADFSTSTLYLKWNDRGSVFPHRSNVIWEIKVLRKESMELVKLVTHNTTLNGKDTLHHWSWASDMPLECAIHFVEIRCYIDNLHFSGLEEWSDWSPVKNISWIPDSQTKVFPQDKVVPVGSDITFCCVSQEKVLSALIGHTDCPLIHLDGENVAIKIRNISASASSGTNVVFITEDDIFGTVIFAGYPPDTPQQLNCETHDLKEIICSWNPGRVTALVGPRATSYTLVESFSGKYVRLKRAEAPTNESYQLLFQMLPNQEIYNFTLNAHNPLGRSQSTILVNITEKVYPHTPTSFKVKDINSTAVKLSWHLPGNFAKINFLCEIEIKKSNSVQEQRNVTIKGVENSSYLVALDKLNPYTLYTFRIRCSTETFWKWSKWSNKKQHLTTEAS
# notes: 6 mutations, all marked
# B4: PRVAID (receptor)
# yeast-displayed receptor fragment: QKKGAPHDLKCVTNNLQVWNCSWKAPSGTGRGTDYEVCIENRSRSCYQLEKTSIKIPALSHGDYEITINSLHDFGSSTSKFTLNEQNVSLIPDTPEILNLSADFSTSTLYLKWNDRGSVFPHRSNVIWEIKVLRKESMELVKLVTHNTTLNGKDTLHHWSWASDMPLECAIHFVEIRCYIDNLHFSGLEEWSDWSPVKNISWIPDSQTKVFPQDKVIPVGSDITFCCVSQEKVLSALIGRTNCPLIHLDGENVAIKVRNISASASSGTNVVFITEDDIFGTVIFAGYPPDTPQQLNCETHDLKEIICSWNPGRVTALVGPRATSYTLVESFSGKYVRLKRAEAPTNESYQLLFQMLPNQEIYNFTLNAHNPLGRSQSTILVNITEKVYPHTPTSFKVKDINSTAVKLSWHLPGNFAKINFLCEIEIKKSNSVQEQRNVTIKGVENSSYLVALDKLNPYTLYTFRIRCSTETFWKWSKWSNKKQHLTTEAS
# B5: PID (receptor)
# yeast-displayed receptor fragment: QKKGAPHDLKCVTNNLQVWNCSWKAPSGTGRGTDYEVCIENRSRSCYQLEKTSIKIPALSHGDYEITINSLHDFGSSTSKFTLNEQNVSLIPDTPEILNLSADFSTSTLYLKWNDRGSVFPHRSNVIWEIKVLRKESMELVKLVTHNTTLNGKDTLHHWSWASDMPLECAIHFVEIRCYIDNLHFSGLEEWSDWSPVKNISWIPDSQTKVFPQDKVIPVGSDITFCCVSQEKVLSALIGHTNCPLIHLDGENVAIKIRNVSVSASSGTNVVFITEDDIFGTVIFAGYPPDTPQQLNCETHDLKEIICSWNPGRVTALVGPRATSYTLVESFSGKYVRLKRAEAPTNESYQLLFQMLPNQEIYNFTLNAHNPLGRSQSTILVNITEKVYPHTPTSFKVKDINSTAVKLSWHLPGNFAKINFLCEIEIKKSNSVQEQRNVTIKGVENSSYLVALDKLNPYTLYTFRIRCSTETFWKWSKWSNKKQHLTTEAS
# B6: VPSID (receptor)
# yeast-displayed receptor fragment: QKKGAPHDLKCVTNNLQVWNCSWKAPSGTGRGTDYEVCIENRSRSCYQLEKTSIKIPALSHGDYEITINSLHDFGSSTSKFTLNEQNVSLIPDTPEILNLSADFSTSTLYLKWNDRGSVFPHRSNVIWEIKVLRKESMELVKLVTHNTTLNGKDTLHHWSWASDMPLECAIHFVEIRCYIDNLHFSGLEEWSDWSPVKNISWIPDSQTKVFPQDKVVPVGSDITFCCVSQEKVLSALIGHTSCPLIHLDGENVAIKIRNISVSASSGTNVVFITEDDIFGTVIFAGYPPDTPQQLNCETHDLKEIICSWNPGRVTALVGPRATSYTLVESFSGKYVRLKRAEAPTNESYQLLFQMLPNQEIYNFTLNAHNPLGRSQSTILVNITEKVYPHTPTSFKVKDINSTAVKLSWHLPGNFAKINFLCEIEIKKSNSVQEQRNVTIKGVENSSYLVALDKLNPYTLYTFRIRCSTETFWKWSKWSNKKQHLTTEAS
# notes: 5 mutations, all marked
# B7: PVAID (receptor)
# yeast-displayed receptor fragment: QKKGAPHDLKCVTNNLQVWNCSWKAPSGTGRGTDYEVCIENRSRSCYQLEKTSIKIPALSHGDYEITINSLHDFGSSTSKFTLNEQNVSLIPDTPEILNLSADFSTSTLYLKWNDRGSVFPHRSNVIWEIKVLRKESMELVKLVTHNTTLNGKDTLHHWSWASDMPLECAIHFVEIRCYIDNLHFSGLEEWSDWSPVKNISWIPDSQTKVFPQDKVIPVGSDITFCCVSQEKVLSALIGHTNCPLIHLDGENVAIKVRNISASASSGTNVVFITEDDIFGTVIFAGYPPDTPQQLNCETHDLKEIICSWNPGRVTALVGPRATSYTLVESFSGKYVRLKRAEAPTNESYQLLFQMLPNQEIYNFTLNAHNPLGRSQSTILVNITEKVYPHTPTSFKVKDINSTAVKLSWHLPGNFAKINFLCEIEIKKSNSVQEQRNVTIKGVENSSYLVALDKLNPYTLYTFRIRCSTETFWKWSKWSNKKQHLTTEAS
# notes: 5 mutations, all marked
# B8: wild-type human gp130 CBM domain displayed on the surface of yeast (receptor)
# chain: LPPEKPKNLSCIVNEGKKMRCEWDRGRETHLETNFTLKSEWATHKFADCKAKRDTPTSCTVDYSTVYFVNIEVWVEAENALGKVTSDHINFDPVYKVKPNPPHNLSVINSEELSSILKLTWTNPSIKSVIILKYNIQYRTKDASTWSQIPPEDTASTRSSFTVQDLKPFTEYVFRIRCMKEDGKGYWSDWSEEASGITYED
# notes: also called gp130 wild-type (WT); wild-type gp130
# B9: ELDSM (receptor)
# yeast-displayed receptor fragment: LPPEKPKNLSCIVNEGKKMRCEWDRGRETHLETNFTLKSEWATHELADCKAKRDTPTSCTVDYSTVYFVNIEVWVEAENALGKVTSDHINFDPVDKVKPSPPHNLSVINSEELSSILKLTWTNPSIKSVMILKYNIQYRTKDASTWSQIPPEDTASTRSSFTVQDLKPFTEYVFRIRCMKEDGKGYWSDWSEEASGITYED
# notes: 5 mutations, all marked
# B10: ELRDM (receptor)
# yeast-displayed receptor fragment: LPPEKPKNLSCIVNEGKKMRCEWDRGRETHLETNFTLKSEWATHELADCKAKRDTPTSCTVDYSTVYFVNIEVWVEAENALGRVTSDHINFDPVDKVKPNPPHNLSVINSEELSSILKLTWTNPSIKSVMILKYNIQYRTKDASTWSQIPPEDTASTRSSFTVQDLKPFTEYVFRIRCMKEDGKGYWSDWSEEASGITYED
# notes: 5 mutations, all marked
# B11: EDE (receptor)
# yeast-displayed receptor fragment: LPPEKPKNLSCIVNEGKKMRCEWDRGRETHLETNFTLKSEWATHEFADCKAKRDTPTSCTVDYSTVYFVNIEVWVEAENALGKVTSDHINFDPVDKVKPNPPHNLSVINSEELSSILKLTWTNPSIKSVIILKYNIQYRTKDASTWSQIPPEDTASTRSSFTVQDLKPFTEYVFRIRCMKEDGEGYWSDWSEEASGITYED
# notes: 3 mutations, all marked
# Biological target: T1, human leukemia inhibitory factor (LIF), soluble (human, UniProt P15018 23-202)
# T1 construct: also called human LIF; soluble human LIF
# T1 sequence (P15018 23-202 limits assumed): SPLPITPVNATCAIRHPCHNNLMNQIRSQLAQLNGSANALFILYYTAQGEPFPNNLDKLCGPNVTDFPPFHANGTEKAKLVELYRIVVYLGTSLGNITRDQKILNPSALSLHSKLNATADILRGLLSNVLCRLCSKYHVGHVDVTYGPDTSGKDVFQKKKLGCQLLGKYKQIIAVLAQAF
# Test: yeast surface display, flow cytometry; score from summed fluorescence at 10 pM and 100 pM human LIF, normalized to wild-type and to expression
row,Binder,Score (normalized binding score)
1,B1,13.3
2,B2,13.4
3,B3,14.4
4,B4,16.9
5,B5,12.2
6,B6,13.2
7,B7,15.6

# Biological target: T1, human leukemia inhibitory factor (LIF), …
# Test: yeast surface display, flow cytometry; Score column of the table of sorted gp130 CBM variants (the filing gives 100 pM and 1 nM human LIF for the gp130 binding scores)
row,Binder,Score (binding score)
1,B8,1.03
2,B9,21.9
3,B10,22.1
4,B11,23
